Experiments:
[1] = molecular target: T1, linker histone H1.2 (unmodified, recombinant) (human, UniProt P16403 1-213); assay: cross-linking; XL-MS: histone/Ub and SIRT1 at molar ratio 1:1 in 1x PBS, 2.75 mM BS3-H12/D12, 10 min on ice then 20 min at 30 °C; three biological replicates; conditions: both partners purified
T1 construct: human linker histone H1.2; also called non-modified H1.2; unmodified H1.2; source: E. coli BL21 (DE3), purified from inclusion bodies (His-tag resin); not shown: Strep-tag II, N-terminal, kept; His6, C-terminal, kept

[2] = molecular target: H1.2 (Homo sapiens, UniProt P16403 1-213); assay: condensate FRAP; 5 uM histone, 5 uM DNA; Condensates: 1x PBS, RT; array EMSA: agarose gel with competitor DNA, buffer not in the material; conditions: protein: recombinant; tags: C-terminal His6; label: Atto-390 at 5' end of the reverse strand; blunt
Chain of H1.2 (P16403 whole entry): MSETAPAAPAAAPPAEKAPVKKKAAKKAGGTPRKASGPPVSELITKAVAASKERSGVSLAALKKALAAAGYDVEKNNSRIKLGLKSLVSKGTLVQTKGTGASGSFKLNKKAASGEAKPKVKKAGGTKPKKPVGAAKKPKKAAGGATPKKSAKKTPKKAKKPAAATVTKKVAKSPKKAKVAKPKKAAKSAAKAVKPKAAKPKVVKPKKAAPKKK

T1 sequence (P16403 whole entry): as above

B1: SIRT1 with N-terminal deletion (recombinant) (enzyme, human, UniProt Q96EB6 1-3, looked up)
chain: MADEAAAAGGEQEAQATAAAGEGDNGPGLQGPSREPPLADNLYDEDDDDEGEEEEEAAAAAIGYRDNLLFGDEIITNGFHSCESDEEDRASHASSSDWTPRPRIGPYTFVQQHLMIGTDPRTILKDLLPETIPPPELDDMTLWQIVINILSEPPKRKKRKDINTIEDAVKLLQECKKIIVLTGAGVSVSCGIPDFRSRDGIYARLAVDFPDLPDPQAMFDIEYFRKDPRPFFKFAKEIYPGQFQPSLCHKFIALSDKEGKLLRNYTQNIDTLEQVAGIQRIIQCHGSFATASCLICKYKVDCEAVRGDIFNQVVPRCPRCPADEPLAIMKPEIVFFGENLPEQFHRAMKYDKDEVDLLIVIGSSLKVRPVALIPSSIPHEVPQILINREPLPHLHFDVELLGDCDVIINELCHRLGGEYAKLCCNPVKLSEITEKPPRTQKELAYLSELPPTPLHVSEDSSSPERTSPPDSSVIVTLLDQAAKSNDDLDVSESKGCMEEKPQEVQTSRNVESIAEQMENPDLKNVGSSTGEKNERTSVAGTVRKCWPNRVAKEQISRRLDGNQYLFLPPNRYIFHGAEVYSDSEDDVLSSSSCGSNSDSGTCQSPSLEEPMEDESEIEEFYNGLEDEPDVPERAGGAGFGTDGDDQEAINEAISVKQEVTDMNYPSNKS
notes: human NAD+-dependent deacetylase SIRT1, aa 1-3 (construct of 669 aa: aa 1-3 + 82-747); human NAD+-dependent deacetylase SIRT1, aa 82-747 (construct of 669 aa: aa 1-3 + 82-747); source: E. coli BL21 (DE3), purified (HisTrap FF, size-exclusion chromatography); not shown: His6, C-terminal, kept
B1: binds [1].

B2: 601 DNA (dsDNA)
DNA 1: CTATACGCGGCCGCCCTGGAGAATCCCGGTGCCGAGGCCGCTCAATTGGTCGTAGCAAGCTCTAGCACCGCTTAAACGCACGTACGCGCTGTCCCCCGCGTTTTAACCGCCAAGGGGATTACTCCCTAGTCTCCAGGCACGTGTCAGATATATACATCCTGTGCATGTGGATCCGAAT
DNA 2: ATTCGGATCCACATGCACAGGATGTATATATCTGACACGTGCCTGGAGACTAGGGAGTAATCCCCTTGGCGGTTAAAACGCGGGGGACAGCGCGTACGTGCGTTTAAGCGGTGCTAGAGCTTGCTACGACCAATTGAGCGGCCTCGGCACCGGGATTCTCCAGGGCGGCCGCGTATAG
B2: binds [2].
